Experimental data reported in the supplement of paper PMC9112550, “Optimization of the antimicrobial peptide Bac7 by deep mutational scanning” (BMC Biology, 2022).

test system: Escherichia coli TOP10; assay: shrunken log2 fold change of peptide-encoding DNA abundance (4.5 h post-induction vs induction); higher = less antimicrobial activity (less host growth inhibition); settings: time post-induction: 4.5 h; library: site-saturation at positions 5, 18, 19, 20
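Further: peptides expressed intracellularly from a pBAD plasmid library in pooled LB shake-flask culture, induced with 0.3% L-arabinose, DNA abundance read by NGS, three biological replicates, DESeq2 with apeglm shrinkage.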

Sequence	shrunken log2 fold change
RRIRARPPRLPRPRPRPNYWPRP	0.0678
RRIRSRPPRLPRPRPRPDQSPRP	0.217
RRIRVRPPRLPRPRPRPWISPRP	-0.0628
RRIRERPPRLPRPRPRPIACPRP	-0.23
RRIRNRPPRLPRPRPRPCCHPRP	-0.00931
RRIRERPPRLPRPRPRPGWKPRP	0.015
RRIRHRPPRLPRPRPRPTQLPRP	0.278
RRIRRRPPRLPRPRPRPVRNPRP	0.146
RRIRNRPPRLPRPRPRPYFTPRP	-0.47
RRIRVRPPRLPRPRPRPYHEPRP	-0.159
RRIRWRPPRLPRPRPRPQFVPRP	-0.1
RRIRWRPPRLPRPRPRPLFCPRP	0.22
RRIRLRPPRLPRPRPRPERNPRP	0.129
RRIRVRPPRLPRPRPRPGKFPRP	-0.17
RRIRARPPRLPRPRPRPRHKPRP	0.316
RRIRVRPPRLPRPRPRPREIPRP	0.087
RRIRPRPPRLPRPRPRPCWAPRP	0.21
RRIRGRPPRLPRPRPRPKGMPRP	0.442
RRIRQRPPRLPRPRPRPHQVPRP	-0.253
RRIRHRPPRLPRPRPRPFFTPRP	-0.231
RRIRLRPPRLPRPRPRPVPNPRP	0.0119
RRIRPRPPRLPRPRPRPFTLPRP	-0.379
RRIRPRPPRLPRPRPRPPELPRP	0.206

Sequence	shrunken log2 fold change
RRIRHRPPRLPRPRPRPIWSPRP	-0.085
RRIRCRPPRLPRPRPRPWAAPRP	-0.0941
RRIRSRPPRLPRPRPRPFIFPRP	-0.343
RRIRKRPPRLPRPRPRPIDHPRP	-0.0104
RRIRRRPPRLPRPRPRPMCPPRP	-0.119
RRIRKRPPRLPRPRPRPEHTPRP	-0.0305
RRIRCRPPRLPRPRPRPYYDPRP	-0.361
RRIRGRPPRLPRPRPRPTAPPRP	0.71
RRIRIRPPRLPRPRPRPFWHPRP	-0.275
RRIRTRPPRLPRPRPRPYAVPRP	-0.331
RRIRHRPPRLPRPRPRPGAIPRP	-0.15
RRIRTRPPRLPRPRPRPAYAPRP	0.0376
RRIRRRPPRLPRPRPRPKLRPRP	1.25
RRIRQRPPRLPRPRPRPSSLPRP	-0.728
RRIRQRPPRLPRPRPRPTTWPRP	-0.0695
RRIRMRPPRLPRPRPRPWDVPRP	0.0498
RRIRYRPPRLPRPRPRPYALPRP	-0.172
RRIRWRPPRLPRPRPRPVWNPRP	-0.232
RRIRLRPPRLPRPRPRPNSCPRP	0.00169
RRIRSRPPRLPRPRPRPFTSPRP	0.0532
RRIRDRPPRLPRPRPRPHGVPRP	-0.00965
RRIRIRPPRLPRPRPRPKLVPRP	0.116
RRIRTRPPRLPRPRPRPKHLPRP	-0.233

Sequence	shrunken log2 fold change
RRIRDRPPRLPRPRPRPNVCPRP	-0.0195
RRIRTRPPRLPRPRPRPQADPRP	-0.297
RRIRDRPPRLPRPRPRPSFEPRP	0.495
RRIRVRPPRLPRPRPRPGNLPRP	-0.101
RRIRGRPPRLPRPRPRPMVWPRP	0.156
RRIRMRPPRLPRPRPRPNITPRP	0.314
RRIRIRPPRLPRPRPRPMMYPRP	-0.13
RRIRGRPPRLPRPRPRPHAPPRP	1.23
RRIRKRPPRLPRPRPRPVYRPRP	-0.667
RRIRTRPPRLPRPRPRPGFKPRP	-0.0634
RRIRTRPPRLPRPRPRPARTPRP	0.381
RRIRRRPPRLPRPRPRPEAWPRP	0.14
RRIRQRPPRLPRPRPRPRCHPRP	0.118
RRIRARPPRLPRPRPRPNYPPRP	-0.144
RRIRMRPPRLPRPRPRPRCGPRP	0.733
RRIRPRPPRLPRPRPRPFYEPRP	-0.105
RRIRHRPPRLPRPRPRPINWPRP	-0.35
RRIRHRPPRLPRPRPRPEDAPRP	-0.0619
RRIRIRPPRLPRPRPRPYQVPRP	-0.14
RRIRRRPPRLPRPRPRPKCFPRP	0.445
RRIRVRPPRLPRPRPRPVRCPRP	0.145
RRIRSRPPRLPRPRPRPLTFPRP	0.182
RRIRARPPRLPRPRPRPDWHPRP	0.136

Sequence	shrunken log2 fold change
RRIRGRPPRLPRPRPRPKFIPRP	-0.425
RRIRERPPRLPRPRPRPIFIPRP	-0.508
RRIRPRPPRLPRPRPRPGAMPRP	0.454
RRIRRRPPRLPRPRPRPMIGPRP	-0.041
RRIRSRPPRLPRPRPRPKSGPRP	0.0485
RRIRVRPPRLPRPRPRPLSWPRP	0.0819
RRIRIRPPRLPRPRPRPCSDPRP	-0.0062
RRIRGRPPRLPRPRPRPKQHPRP	0.906
RRIRGRPPRLPRPRPRPHGSPRP	-0.0658
RRIRMRPPRLPRPRPRPHTNPRP	0.0722
RRIRFRPPRLPRPRPRPLIKPRP	-0.31
RRIRARPPRLPRPRPRPEQEPRP	0.00961
RRIRTRPPRLPRPRPRPEVHPRP	0.00869
RRIRTRPPRLPRPRPRPAINPRP	0.0461
RRIRRRPPRLPRPRPRPVGCPRP	0.472
RRIRFRPPRLPRPRPRPCMSPRP	-0.0366
RRIRDRPPRLPRPRPRPGLFPRP	0.949
RRIRFRPPRLPRPRPRPWQQPRP	-0.104
RRIRTRPPRLPRPRPRPIWWPRP	0.261
RRIRSRPPRLPRPRPRPVWLPRP	-0.388
RRIRHRPPRLPRPRPRPSNLPRP	-0.289
RRIRHRPPRLPRPRPRPATSPRP	-0.00994
